Experimental data as given in US20050074865A1.

Biological target: recombinant human TNFα (RDI) (human) (UniProt P01375)
Assay: cell-based or functional assay

recombinant human TNFα (RDI) (human), sequence (P01375 77-233 limits assumed): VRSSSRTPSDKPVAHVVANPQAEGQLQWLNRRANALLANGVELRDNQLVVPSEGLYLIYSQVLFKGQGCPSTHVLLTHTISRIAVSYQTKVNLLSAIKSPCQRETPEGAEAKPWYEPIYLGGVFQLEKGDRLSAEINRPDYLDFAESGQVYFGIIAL

B1: MMP7 (enzyme, UniProt P09237 95-267, looked up, species assumed)
Matrilysin: YSLFPNSPKWTSKVVTYRIVSYTRDLPHITVDRLVSKALNMWGKEIPLHFRKVVWGTADIMIGFARGAHGDSYPFDGPGNTLAHAFAPGTGLGGDAHFDEDERWTDGSSLGINFLYAATHELGHSLGMGHSSDPNAVMYPTYGNGDPQNFKLSQDDIKGIQKLYGKRSNSRKK
  L929 cell survival at the dilution equivalent to ~600 pg/ml TNFα (reference standard: 10% survival): 40 % survival
  log reduction in TNFα activity at the 50% survival level, L929 cytotoxicity bioassay after overnight digestion: 1.22 log
